In patent US20110076693:

Target: GST-PBIPtide-A6 [GST: P08515]

B1: Flag-Plk2 (protein)
chain: MELLRTITYQPAASTKMCEQALGKGCGADSKKKRPPQPPEESQPPQSQAQVPPAAPHHHHHHSHSGPEISRIIVDPTTGKRYCRGKVLGKGGFAKCYEMTDLTNNKVYAAKIIPHSRVAKPHQREKIDKEIELHRILHHKHVVQFYHYFEDKENIYILLEYCSRRSMAHILKARKVLTEPEVRYYLRQIVSGLKYLHEQEILHRDLKLGNFFINEAMELKVGDFGLAARLEPLEHRRRTICGTPNYLSPEVLNKQGHGCESDIWALGCVMYTMLLGRPPFETTNLKETYRCIREARYTMPSSLLAPAKHLIASMLSKNPEDRPSLDDIIRHDFFLQGFTPDRLSSSCCHTVPDFHLSSPAKNFFKKAAAALFGGKKDKARYIDTHNRVSKEDEDIYKLRHDLKKTSITQQPSKHRTDEELQPPTTTVARSGTPAVENKQQIGDAIRMIVRGTLGSCSSSSECLEDSTMGSVADTVARVLRGCLENMPEADCIPKEQLSTSFQWVTKWVDYSNKYGFGYQLSDHTVGVLFNNGAHMSLLPDKKTVHYYAELGQCSVFPATDAPEQFISQVTVLKYFSHYMEENLMDGGDLPSVTDIRRPRLYLLQWLKSDKALMMLFNDGTFQVNFYHDHTKIIICSQNEEYLLTYINEDRISTTFRLTTLLMSGCSSELKNRMEYALNMLLQRCN
in vitro kinase assay of Flag immunoprecipitates, 32P incorporated into GST-PBIPtide-A6: Plk1, but not Plk2 or Plk3, phosphorylates and binds to the T78 motif of PBIPtides

B2: Flag-Plk3 (protein)
chain: MEPAAGFLSPRPFQRAAAAPAPPAGPGPPPSALRGPELEMLAGLPTSDPGRLITDPRSGRTYLKGRLLGKGGFARCYEATDTETGSAYAVKVIPQSRVAKPHQREKILNEIELHRDLQHRHIVRFSHHFEDADNIYIFLELCSRKSLAHIWKARHTLLEPEVRYYLRQILSGLKYLHQRGILHRDLKLGNFFITENMELKVGDFGLAARLEPPEQRKKTICGTPNYVAPEVLLRQGHGPEADVWSLGCVMYTLLCGSPPFETADLKETYRCIKQVHYTLPASLSLPARQLLAAILRASPRDRPSIDQILRHDFFTKGYTPDRLPISSCVTVPDLTPPNPARSLFAKVTKSLFGRKKKSKNHAQERDEVSGLVSGLMRTSVGHQDARPEAPAASGPAPVSLVETAPEDSSPRGTLASSGDGFEEGLTVATVVESALCALRNCIAFMPPAEQNPAPLAQPEPLVWVSKWVDYSNKFGFGYQLSSRRVAVLFNDGTHMALSANRKTVHYNPTSTKHFSFSVGAVPRALQPQLGILRYFASYMEQHLMKGGDLPSVEEVEVPAPPLLLQWVKTDQALLMLFSDGTVQVNFYGDHTKLILSGWEPLLVTFVARNRSACTYLASHLRQLGCSPDLRQRLRYALRLLRDRSPA
in vitro kinase assay of Flag immunoprecipitates, 32P incorporated into GST-PBIPtide-A6: Plk1, but not Plk2 or Plk3, phosphorylates and binds to the T78 motif of PBIPtides
